Experimental data as given in patent US20240067728A1 (BIO THERA SOLUTIONS, published 2024).

Columns and labels:
[1] = target: T1, PD-L1-His antigen (human, UniProt Q9NZQ7 19-238); experiment: SPR (Biacore), method of Example 5, 1:1 Binding fit
T1 construct: Human PD-L1 ECD with C-terminal 8xHIS tag, expressed in HEK293F; also called hPDL1-His; human PD-L1-His

[2] = target: PD-L1 on CHO-PD-L1 cells (Promega PD-1/PD-L1 Blockade Bioassay) (UniProt Q9NZQ7 19-290, limits assumed); experiment: cell-based or functional assay
[3] = target: T2, CD47-His antigen (human, UniProt Q08722 19-139); experiment: competitive ELISA, CD47-His coated, competitor SIRPα-Fc-Bio 0.1 µg/mL
T2 construct: Human CD47 ECD with C-terminal 8xHIS tag, expressed in HEK293F; also called hCD47-His; human CD47-His
T2 sequence (Q08722 other isoform, or with tags, fused parts or gaps limits assumed): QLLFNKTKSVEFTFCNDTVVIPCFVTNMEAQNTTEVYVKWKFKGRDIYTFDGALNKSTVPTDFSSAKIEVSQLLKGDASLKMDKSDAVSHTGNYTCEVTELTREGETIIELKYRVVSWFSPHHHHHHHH

PD-L1 on CHO-PD-L1 cells (Promega PD-1/PD-L1 Blockade Bioassay), sequence (Q9NZQ7 19-290 limits assumed): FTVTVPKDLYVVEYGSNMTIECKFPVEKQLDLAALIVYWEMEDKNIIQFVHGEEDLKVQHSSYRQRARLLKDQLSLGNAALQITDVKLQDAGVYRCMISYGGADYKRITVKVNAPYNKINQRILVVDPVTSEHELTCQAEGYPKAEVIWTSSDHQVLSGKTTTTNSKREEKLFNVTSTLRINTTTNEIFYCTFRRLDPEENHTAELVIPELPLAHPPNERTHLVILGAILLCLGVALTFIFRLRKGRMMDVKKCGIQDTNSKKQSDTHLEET
T1 sequence (Q9NZQ7 other isoform, or with tags, fused parts or gaps limits assumed): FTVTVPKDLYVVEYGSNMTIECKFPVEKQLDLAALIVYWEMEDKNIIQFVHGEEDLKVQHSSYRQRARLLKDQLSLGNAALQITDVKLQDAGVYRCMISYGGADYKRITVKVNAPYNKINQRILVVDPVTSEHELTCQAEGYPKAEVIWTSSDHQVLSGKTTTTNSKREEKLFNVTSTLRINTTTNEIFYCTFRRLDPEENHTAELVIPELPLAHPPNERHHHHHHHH

| Binder | Kd [1] [nM] | EC50 (luciferase reporter, PD-1/PD-L1 blockade MOA assay; blocked partner: PD-1 on Jurkat-PD1 cells) [2] [µg/mL] | IC50 [3] [µg/mL] |
| --- | --- | --- | --- |
| antibody 18 (antibody, human IgG1, kappa, V domains shown, IgG1 complete anti-CD47 antibody) VH: QVQLQESGPGLVKPSETLSLTCTVSGGSLDNYYWSWIRQPPGKGLEWIGYIYYSGNTNYNPSLKSRVTISVDTSKNQFSLRLRSVTAADTAVYYCARGRGIFGYWGQGTLVTVSS VL: DIQMTQSPSSVSASVGDRVTISCRANQAIGTWLAWYQQKPGKAPKLLIYAASTLQSGVPSRFSGSGSGTEFTLTISSLQAEDVAVYYCQQYYTTPLTFGGGTKLEIKR | – | – | 1.23 |
| L1-R2-78 (antibody, V domains shown, Anti-PD-L1 monoclonal antibody, VH CP11-27 with light chain R2-78; also called LI-R2-78) VH: not shown VL: DIQMTQSPSSFSASTGDRVTITCRASQGISSYLAWYQQKPGKAPKLLIYAASRLQSGVPSRFSGSGSGTDFTLTISSLQAEDVAVYYCQQYYSTPYTFGQGTKVDIKR | 8.99 | 3.57 | – |
| L1-R2-4 (antibody, V domains shown, Anti-PD-L1 monoclonal antibody, VH CP11-27 with light chain R2-4; also called LI-R2-4) VH: not shown VL: EIVLTQSPSSLSASVGDRVTITCLASQTIGTWLAWYQQKPGKSPQLLIYAASTLQSGVPSRFSGSGSGTDFTLTISSLQPEDVATYYCQQYYSTPRTFGQGTKVEIKR | 1.67 | 2.74 | – |
| antibody L12-6 (antibody, human IgG1, kappa, V domains shown, IgG1 complete anti-CD47 antibody) VH: QVQLQESGPGLVKPSETLSLTCTVSGGSLDNYYWSWIRQPPGKGLEWIGYIYYSGNTNYNPSLKSRVTISVDTSKNQFSLKLSSVTAADTAVYYCARGGRFLERYWGQGTLVTVSS VL: EIVLTQSPSSLSASVGDRVTIPCRASLSIGSFLNWYQQRPGEAPKLLIFAASSLRSGVPSRFSGSGSGTDFTLTISGLQPEDFATYYCQQTYTTPYTFGQGTKVDIKR | – | – | 0.913 |
| antibody 3-6 (antibody, human IgG1, kappa, V domains shown, IgG1 complete anti-CD47 antibody) VH: QVQLQESGPGLVKPSETLSLTCTVSGGSLDNYYWSWIRQPPGKGLEWIGYIYYSGNTNYNPSLKSRVTISVDTSKNQFSLRLRSVTAADTAVYYCARGGRIFAGYWGQGTLVTVSS VL: DIQMTQSPSSVSASVGDRVTISCRANQAIGTWLAWYQQKPGKAPKLLIYAASTLQSGVPSRFSGSGSGTEFTLTISSLQAEDVAVYYCQQYYTTPLTFGGGTKLEIKR | – | – | 1.12 |
| antibody 6 (antibody, human IgG1, kappa, V domains shown, IgG1 complete anti-CD47 antibody) VH: QVQLQESGPGLVKPSETLSLTCTVSGGSLNDYYWSWIRQPPGKGLEWIGRIYGNGDTNYNPSLKSRVTISVDTSKNQFSLRLRSVTAADTAVYYCARGGRILAGYWGQGTLVTVSS VL: DIQMTQSPSSVSASVGDRVTISCRANQAIGTWLAWYQQKPGKAPKLLIYAASTLQSGVPSRFSGSGSGTEFTLTISSLQAEDVAVYYCQQYYTTPLTFGGGTKLEIKR | – | – | 1.1 |
| antibody 17 (antibody, human IgG1, kappa, V domains shown, IgG1 complete anti-CD47 antibody) VH: QVQLQESGPGLVKPSETLSLTCTVSGGSLDNYYWSWIRQPPGKGLEWIGYIYYSGNTNYNPSLKSRVTISVDTSKNQFSLRLRSVTAADTAVYYCARGGRFLERYWGQGTLVTVSS VL: DIQMTQSPSSVSASVGDRVTISCRANQAIGTWLAWYQQKPGKAPKLLIYAASTLQSGVPSRFSGSGSGTEFTLTISSLQAEDVAVYYCQQYYTTPLTFGGGTKLEIKR | – | – | 0.795 |

More lines, now with the values ahead:

| Kd [1] [nM] | EC50 (luciferase reporter, PD-1/PD-L1 blockade MOA assay; blocked partner: PD-1 on Jurkat-PD1 cells) [2] [µg/mL] | IC50 [3] [µg/mL] | Binder |
| --- | --- | --- | --- |
| 10.3 | 3.92 | – | L1-R2-6 (antibody, V domains shown, Anti-PD-L1 monoclonal antibody, VH CP11-27 with light chain R2-6; also called LI-R2-6) VH: not shown VL: EIVLTQSPSSVSASVGDKLTMTCQASQDIGKHLNWYQQKPGKPPKLLIYGASNLKTGVPSRFSGTGSGTDFTLTISSLQPEDFATYYCQQSYTTPYTFGQGTRLEIKR |
| – | – | 1.31 | antibody 25 (antibody, human IgG1, kappa, V domains shown, IgG1 complete anti-CD47 antibody) VH: QVQLQESGPGLVKPSETLSLTCTVSGGSLDNYYWSWIRQPPGKGLEWIGYIYYSGNTNYNPSLKSRVTISVDTSKNQFSLRLRSVTAADTAVYYCARGGRIFGHWGQGTLVTVSS VL: DIQMTQSPSSVSASVGDRVTISCRANQAIGTWLAWYQQKPGKAPKLLIYAASTLQSGVPSRFSGSGSGTEFTLTISSLQAEDVAVYYCQQYYTTPLTFGGGTKLEIKR |
| 3.92 | 5.09 | – | L1-R2-18 (antibody, V domains shown, Anti-PD-L1 monoclonal antibody, VH CP11-27 with light chain R2-18; also called LI-R2-18) VH: not shown VL: EIVLTQSPSSVSASVGDRITITCRASQGIGSWLAWYQQKPGKAPSLLIYAASSLQSGVPSRFSGSGSGTDFTLTISSLQTEDVAVYYCQQYFSTPYTFGQGTKVDIKR |
| 11.5 | 5.22 | – | L1-R2-85 (antibody, V domains shown, Anti-PD-L1 monoclonal antibody, VH CP11-27 with light chain R2-85; also called LI-R2-85) VH: not shown VL: DIQMTQSPSSLSASVGDRVTIPCRASQGIGKFLAWYQQKPGKAPSLLIYAASSLQSGVPSRFSGSGSGTDFTLTISSLQTEDVAVYYCQQYFSTPYTFGQGTKVDIKR |
| 4.08 | 3.78 | – | L1-R2-89 (antibody, V domains shown, Anti-PD-L1 monoclonal antibody, VH CP11-27 with light chain R2-89; also called LI-R2-89) VH: not shown VL: DIQMTQSPSSLSASVGDRVTITCLASQTIGTWLAWYQQKPGKSPQLLIYAASSLQSGVPSRFSGSGSGTDFTLTISSLQPEDVATYYCQQYYSTPYTFGQGTKVDIKR |
| – | – | 0.844 | antibody 3 (antibody, human IgG1, kappa, V domains shown, IgG1 complete anti-CD47 antibody) VH: QVQLQESGPGLVKPSETLSLTCTVSGGSLDGYYWSWIRQPPGKGLEWIGRIYGNSTTNYNPSLKSRVTISVDTSKNQFSLRLRSVTAADTAVYYCARGGRIFAGYWGQGTLVTVSS VL: DIQMTQSPSSVSASVGDRVTISCRANQAIGTWLAWYQQKPGKAPKLLIYAASTLQSGVPSRFSGSGSGTEFTLTISSLQAEDVAVYYCQQYYTTPLTFGGGTKLEIKR |
| – | – | 1.06 | antibody 10 (antibody, human IgG1, kappa, V domains shown, IgG1 complete anti-CD47 antibody) VH: QVQLQESGPGLVKPSETLSLTCTVSGGSLDNYYWSWIRQPPGKGLEWIGRIYYNGNTNYNPSLKSRVTISVDTSKNQFSLRLRSVTAADTAVYYCARGGRILAGYWGQGTLVTVSS VL: DIQMTQSPSSVSASVGDRVTISCRANQAIGTWLAWYQQKPGKAPKLLIYAASTLQSGVPSRFSGSGSGTEFTLTISSLQAEDVAVYYCQQYYTTPLTFGGGTKLEIKR |
| – | – | 0.975 | antibody 16 (antibody, human IgG1, kappa, V domains shown, IgG1 complete anti-CD47 antibody) VH: QVQLQESGPGLVKPSETLSLTCTVSGGSLDNYYWSWIRQPPGKGLEWIGYIYYSGNTNYNPSLKSRVTISVDTSKNQFSLRLRSVTAADTAVYYCARGGRIFSGYWGQGTLVTVSS VL: DIQMTQSPSSVSASVGDRVTISCRANQAIGTWLAWYQQKPGKAPKLLIYAASTLQSGVPSRFSGSGSGTEFTLTISSLQAEDVAVYYCQQYYTTPLTFGGGTKLEIKR |
| – | – | 0.939 | antibody 3-3 (antibody, human IgG1, kappa, V domains shown, IgG1 complete anti-CD47 antibody) VH: QVQLQESGPGLVKPSETLSLTCTVSGGSLDNYYWSWIRQPPGKGLEWIGYIYYSGNTNYNPSLKSRVTISVDTSKNQFSLRLRSVTAADTAVYYCARGGRIFGGYWGQGTLVTVSS VL: DIQMTQSPSSVSASVGDRVTISCRANQAIGTWLAWYQQKPGKAPKLLIYAASTLQSGVPSRFSGSGSGTEFTLTISSLQAEDVAVYYCQQYYTTPLTFGGGTKLEIKR |
| – | – | 1.41 | antibody 24 (antibody, human IgG1, kappa, V domains shown, IgG1 complete anti-CD47 antibody) VH: QVQLQESGPGLVKPSETLSLTCTVSGGSLDNYYWSWIRQPPGKGLEWIGRIYGDSATNYNPSLKSRVTISVDTSKNQFSLRLRSVTAADTAVYYCARGGRIFSGYWGQGTLVTVSS VL: DIQMTQSPSSVSASVGDRVTISCRANQAIGTWLAWYQQKPGKAPKLLIYAASTLQSGVPSRFSGSGSGTEFTLTISSLQAEDVAVYYCQQYYTTPLTFGGGTKLEIKR |
